Laboratory results reported in patent publication US20220193186A1, “METHOD OF TREATING AND PREVENTING BONE AND JOINT INFECTIONS” (CONTRAFECT CORPORATION, priority 2019, published 2022).
In brackets after ≈: the same amount, converted by molar mass.

What was measured:
MRSA IDRL-6169 [1] = test: MIC by broth microdilution; assay type: cell-based, Staphylococcus aureus; conditions: MRSA IDRL-6169, broth microdilution, CF-301 testing with 0.5 mM DL-dithiothreitol and 25% horse serum
MRSA IDRL-6169 [2] = test: Acute MRSA osteomyelitis in rats, quantitative culture of tibia (Example 4); assay type: in vivo, Sprague Dawley rats; conditions: rat tibia, daptomycin 60 mg/kg i.p. every 12 hours for four days, CF-301 single dose 40 mg/kg tail vein; for mean (±SD) bacterial density: Day 12 (4 days after start of therapy); for reduction compared to untreated rats: Day 12
[3] = system: methicillin-resistant Staphylococcus aureus IDRL-6169; test: Rat osteomyelitis model, quantitative culture of tibia (Example 6); assay type: in vivo, Sprague Dawley rats; conditions: for Mean log10 CFU/g / Median log10 CFU/g: rat tibia bone; for Mean log10 CFU/g reduction: vs no treatment
Method: Agents Chemother. 2019 Sep. 23; 63(10). Specifically, osteomyelitis was established in the rats by bending the knee joint, inserting a 21G needle into the tibial process, and injecting 10 μl […] and 50 μl of about 10^6-10^8 colony forming units (cfu) suspension of methicillin-resistant Staphylococcus aureus IDRL-6169.
(§1) The following six treatment groups were identified: (1) control/no treatment (n=18); (2) 60 mg/kg daptomycin (DAP) administered subcutaneously twice daily for 4 days (n=17); (3) 40 mg/kg pp296 administered intravenously daily for 4 days (n=17); (4) 40 mg/kg pp296 administered intravenously daily for 4 days plus 60 mg/kg DAP administered subcutaneously twice daily for 4 days (n=17); (5) 100 mg/kg pp296 administered intravenously once as a single dose on treatment day 1 (n=17); and (6) 100 mg/kg pp296 administered intravenously once as a single dose on treatment day 1 plus 60 mg/kg DAP administered subcutaneously twice daily for 4 days (n=17). When daptomycin was administered together with pp296, it was given 15 minutes prior to pp296, which was maintained on ice.
Animals were sacrificed twelve hours after the last treatment was administered, and the tibia were collected, weighed, and cryopulverized for quantitative bacterial culture. The log10 CFU counts/g of tibia bone was determined using the Wilcoxon rank sum test, adjusted with a false discovery rate approach.

MRSA IDRL-6169 biofilm = test: Minimum biofilm inhibitory and bactericidal concentrations; assay type: cell-based, Staphylococcus aureus; conditions: CF-301 testing with 0.5 mM DL-dithiothreitol and 25% horse serum
[4] = Body weight of rats in osteomyelitis model (Example 6); assay type: in vivo, Sprague Dawley rats; conditions: mean; for Body weight on Day 1: time of surgery (before treatment); for Body weight on Day 8: immediately prior to treatment; for Body weight on Day 12: time of sacrifice, without or with DAP 60 mg/kg
Method: as §1
Additionally, body weights of the animals were monitored as a marker of general health status during the study. The mean body weight of the animals at the time of surgery (day 1), immediately prior to treatment (day 8), and at the time of sacrifice (day 12) are shown below in Table 5.

[5] = system: multiple drug resistant (MDR) Staphylococcus epidermidis prosthetic knee infection; test: CF-301 during arthroscopic DAIR in patients with prosthetic knee infection
[6] = after a single dose of 10 mg/kg
[7] = system: S. epidermidis clinical isolates; test: MIC by broth microdilution (CLSI) in caMHB-HSF and caMHB-HSD; assay type: cell-based; conditions: S. epidermidis (N = 53)
Source text: More particularly MIC values for a lysin may be determined against e.g., S. epidermidis or S. aureus in e.g., Mueller-Hinton broth (MHB) supplemented with physiological salt concentrations and synovial fluid, such as human synovial fluid. Minimum Inhibitory Concentrations (MICs) of a lysin against e.g., S. epidermidis may be determined using broth microdilution (BMD) following Clinical and Laboratory Standards Institute (CLSI) methodology (M07-A11, 2018, which is herein incorporated by reference in its entirety) in a non-standard medium (caMHB supplemented to 50% with human synovial fluid (caMHB-HSF)). See Examples.
Minimum Inhibitory Concentrations (MICs) of the CF-301 lysin (SEQ ID NO: 1) against S. epidermidis were determined using broth microdilution (BMD) following CLSI methodology (M07-A11, 2018) in a non-standard medium (caMHB supplemented to 25% with horse serum and 0.5 mM with DTT (caMHB-HSD)) approved for use by the CLSI in antimicrobial susceptibility testing with CF-301 (CLSI, AST Subcommittee Meeting, January, 2018). Activity of CF-301 against S. epidermidis in HSF (Discovery Life Sciences) was similarly determined using BMD in caMHB with 50% HSF (caMHB-HSF). The caMHB-HSF supports the growth and biofilm formation of S. epidermidis as well as S. aureus.

[8] = system: S. epidermidis isolate NRS6 biofilms; test: Disruption of biofilms formed in human synovial fluid (fluorescent imaging); assay type: cell-based
Method: Macroscopic analysis of CF-301 activity on biofilms, which were formed in human synovial fluid, was performed in the manner described in Dastgheyb et al. (2015) JID 211:641-50 and Dastgheyb et al. (2015) AAC 59:e04579-14. Briefly, 10^8 CFUs of S. epidermidis isolate NRS6 were incubated for 24 hours at 37° C. in 24-well plates containing HSF. After biofilm formation, the wells were stained with ethidium bromide (EtBr) and treated with 0.1 or 1 μg/mL CF-301 for 2 hours. The biofilms were visualized by UV fluorescent imaging. Untreated controls were also examined.
The biofilms were also stained with Alexa Flour^488-WGA, which stained the exopolysaccharide in the biofilms (and individual bacteria) and propidium iodide (PI) which stained the entire biofilm. The biofilms were then visualized by fluorescence microscopy. As evidenced in FIG. 3, the S. epidermidis biofilms formed in HSF were eliminated after two hours of treatment with 0.1 ug/mL or 1 ug/mL CF-301.

[9] = system: S. aureus (MRSA strains MW2, ATCC BAA-42); test: MIC by broth microdilution (CLSI) in caMHB-HSF and caMHB-HSD; assay type: cell-based
[10] = Pathological slides, rat osteomyelitis model (Example 6); assay type: in vivo, Sprague Dawley rats; conditions: rats, pp296 line: 40 mg/kg daily dosing (Treatment Group 3)
Source text: These findings are consistent with acute osteomyelitis, and no appreciable differentiation between groups could be made.

[11] = DAP 60 mg/kg s.c. twice daily for 4 days
[12] = CF-301 into the joint during arthroscopic DAIR, daptomycin, linezolid then suppressive tedizolid
[13] = caMHB-HSD (25% horse serum, 0.5 mM DTT)
[14] = caMHB-HSF (50% human synovial fluid)
[15] = pp296 40 mg/kg i.v. daily for 4 days (combination: plus DAP 60 mg/kg s.c. twice daily for 4 days)
[16] = pp296 100 mg/kg i.v. single dose on treatment day 1 (combination: plus DAP 60 mg/kg s.c. twice daily for 4 days)
[17] = groups pp296 40 mg/kg, without or with DAP
[18] = groups pp296 100 mg/kg, without or with DAP

CCCCCCCCCC(=O)N[C@@H](Cc1c[nH]c2ccccc12)C(=O)N[C@H](CC(N)=O)C(=O)N[C@@H](CC(=O)O)C(=O)N[C@@H]1C(=O)NCC(=O)N[C@@H](CCCN)C(=O)N[C@@H](CC(=O)O)C(=O)N[C@H](C)C(=O)N[C@@H](CC(=O)O)C(=O)NCC(=O)N[C@H](CO)C(=O)N[C@@H]([C@H](C)CC(=O)O)C(=O)N[C@@H](CC(=O)c2ccccc2N)C(=O)O[C@@H]1C [daptomycin, reference compound]
MIC (MRSA IDRL-6169 [1]; Staphylococcus aureus, read-out: minimum inhibitory concentration): 0.5 µg/mL (≈ 0.309 µM) | mean (±SD) bacterial density (MRSA IDRL-6169 [2]): 4.09 (±0.37) log10 cfu/gram of bone | reduction compared to untreated rats (MRSA IDRL-6169 [2]): 1.04 log10 cfu/gram of bone | Mean log10 CFU/g [3, 11]: 4.29 log10 CFU/g | Median log10 CFU/g [3, 11]: 4.79 log10 CFU/g | Mean log10 CFU/g reduction [3, 11]: −1.14 log10 CFU/g | Minimum biofilm inhibitory concentration (MRSA IDRL-6169 biofilm): 1 µg/mL | minimum biofilm bactericidal concentration (MRSA IDRL-6169 biofilm): 2 µg/mL | Body weight on Day 1 ([4]; group DAP 60 mg/kg): 339 g

B1: CF-301: PlySs2 lysin of SEQ ID NO: 1, anti-staphylococcal lysin encoded within a prophage of the Streptococcus suis genome (protein, listed as Streptococcus suis)
chain: MTTVNEALNNVRAQVGSGVSVGNGECYALASWYERMISPDATVGLGAGVGWVSGAIGDTISAKNIGSSYNWQANGWTVSTSGPFKAGQIVTLGATPGNPYGHVVIVEAVDGDRLTILEQNYGGKRYPVRNYYSAASYRQQVVHYITPPGTVAQSAPNLAGSRSYRETGTMTVTVDALNVRRAPNTSGEIVAVYKRGESFDYDTVIIDVNGYVWVSYIGGSGKRNYVATGATKDGKRFGNAWGTFK
outcome after 1 year follow up in the two septic arthritis patients [5, 12]: favorable | outcome at 6 months in the two patients with fistula at baseline [5, 12]: recurrence of the fistula | adverse events during arthroscopy ([5]; four patients, CF-301 (75 mg/mL; 30 mL) into the joint during arthroscopy, followed by antibiotics): No adverse events | Levels of CF-301 in bone relative to plasma levels [6]: 10-15% | minimum inhibitory concentration (MRSA IDRL-6169 [1]): 0.5 µg/mL | CF-301 MIC, MIC50 [7, 13]: 0.5 µg/mL | CF-301 MIC, MIC90 [7, 13]: 0.5 µg/mL | CF-301 MIC, Range [7, 13]: 0.25 to 2 µg/mL | CF-301 MIC, MIC50 [7, 14]: 0.015 µg/mL | CF-301 MIC, MIC90 [7, 14]: 0.125 µg/mL | CF-301 MIC, Range [7, 14]: 0.0078 to 2 µg/mL | ethidium bromide staining of biofilm structures formed by NRS6 in human synovial fluid ([8]; 0.1 or 1 μg/mL CF-301 for 2 hours, UV fluorescent imaging, FIG. 2): eliminated | S. epidermidis biofilms formed in HSF, Alexa Fluor 488-WGA / propidium iodide fluorescence microscopy ([8]; two hours of treatment with 0.1 ug/mL or 1 ug/mL CF-301, FIG. 3): eliminated | mean (±SD) bacterial density (MRSA IDRL-6169 [2]): 4.65 (±0.65) log10 cfu/gram of bone | reduction compared to untreated rats (MRSA IDRL-6169 [2]): 0.65 log10 cfu/gram of bone | Minimum biofilm inhibitory concentration (MRSA IDRL-6169 biofilm): 1 µg/mL | minimum biofilm bactericidal concentration (MRSA IDRL-6169 biofilm): 4 µg/mL | CF-301 MIC ([9]; S. aureus strain ATCC BAA-42, caMHB-HSD): 0.5 µg/mL | CF-301 MIC ([9]; S. aureus strain ATCC BAA-42, caMHB-HSF): 0.03 µg/mL | CF-301 MIC ([9]; S. aureus strain MW2, caMHB-HSD): 0.5 µg/mL | CF-301 MIC ([9]; S. aureus strain MW2, caMHB-HSF): 0.03 µg/mL

B2: pp296: modified PlySs2 lysin, SEQ ID NO: 6; L92W, V104S, V128T and Y137S, Y164K, N184D, S198Q (protein)
chain: MTTVNEALNNVRAQVGSGVSVGNGECYALASWYERMISPDATVGLGAGVGWVSGAIGDTISAKNIGSSYNWQANGWTVSTSGPFKAGQIVTWGATPGNPYGHVSIVEAVDGDRLTILEQNYGGKRYPTRNYYSAASSRQQVVHYITPPGTVAQSAPNLAGSRSKRETGTMTVTVDALNVRRAPDTSGEIVAVYKRGEQFDYDTVIIDVNGYVWVSYIGGSGKRNYVATGATKDGKRFGNAWGTFK
Pathological slides (marrow cellularity) [10]: only possible hypercellularity | Mean log10 CFU/g [3, 15]: 4.94 log10 CFU/g | Median log10 CFU/g [3, 15]: 5.27 log10 CFU/g | Mean log10 CFU/g [3, 16]: 4.81 log10 CFU/g | Median log10 CFU/g [3, 16]: 4.99 log10 CFU/g | Mean log10 CFU/g reduction [3, 15]: −0.49 log10 CFU/g | Mean log10 CFU/g reduction [3, 16]: −0.61 log10 CFU/g | Body weight on Day 8 [4, 17]: 313 g | Body weight on Day 8 [4, 18]: 312 g | Body weight on Day 12 ([4]; pp296 40 mg/kg i.v. daily for 4 days): 311 g | Body weight on Day 12 ([4]; pp296 100 mg/kg i.v. single dose): 312 g | Body weight on Day 1 [4, 17]: 342 g | Body weight on Day 1 [4, 18]: 344 g
